Laboratory results as given in PMC3754917.

Biological target: transcobalamin saturated with vitamin B12 (holoTC) (human (endogenous in serum)) (UniProt P20062)
Assay: co-IP; serum samples of 6 pregnant women (weeks 15, 25 and 35) exposed to anti-TC coated magnetic beads; sCD320 measured by in-house sandwich ELISA before and after the precipitation

UniProt P20062, sequence (P20062 19-427): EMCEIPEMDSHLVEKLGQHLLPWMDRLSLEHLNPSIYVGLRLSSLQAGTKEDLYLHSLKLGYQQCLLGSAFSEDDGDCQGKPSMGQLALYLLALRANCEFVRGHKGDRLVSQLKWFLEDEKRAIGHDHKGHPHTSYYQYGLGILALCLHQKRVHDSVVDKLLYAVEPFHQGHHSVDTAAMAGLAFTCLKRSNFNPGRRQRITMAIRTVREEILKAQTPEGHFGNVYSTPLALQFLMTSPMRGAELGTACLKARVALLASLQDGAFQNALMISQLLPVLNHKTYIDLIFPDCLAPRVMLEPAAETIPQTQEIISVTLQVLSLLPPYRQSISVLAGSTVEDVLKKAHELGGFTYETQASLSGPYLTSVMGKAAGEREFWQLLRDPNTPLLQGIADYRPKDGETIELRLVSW

percent of sCD320 removed by precipitation with antibodies against TC (week 15, median): 36%
percent of sCD320 removed by precipitation with antibodies against TC (week 25, median): 36%
percent of sCD320 removed by precipitation with antibodies against TC (week 35, median): 40%
stoichiometry N: 1
Substance: soluble CD320 (sCD320), soluble receptor for transcobalamin-vitamin B12 (from UniProt Q9NPF0 36-229)
